Test results taken from patent US6670189B2, “Fumonisin detoxification compositions and methods” (priority 1994, dated 2003).

How the values were obtained:
FB1 Hydrolase activity = experiment: Effect of various treatments on modification of FB1 by E. spinifera esterase (culture filtrates); format: biochemical, Exophiala spinifera; parameters: key: − = no hydrolysis; ± = trace amount of hydrolysis; + = incomplete hydrolysis; ++ = incomplete hydrolysis; +++ = complete hydrolysis; details: treatment 0.01 mg/ml, 16 hr, 37° C., pH 5.2; then incubated with FB1 overnight at 37° C.
Method: (§1) Analytical thin-layer chromatography was carried out on 100% silanized C18 silica plates (Sigma #T-7020; 10×10 cm; 0.1 mm thick) by a modification of the published method of Rottinghaus (Rottinghaus, G. E., Coatney, C. E., and Minor, H. C., A rapid, sensitive thin layer chromatography procedure for the detection of fumonisin b-1 and b-2, J Vet Diagn Invest, 4, 326 (1992), and herein incorporated by reference).
(§2) Sample lanes were pre-wet with methanol to facilitate sample application. After application of from 0.1 to 2 μl of aqueous sample, the plates were air-dried and developed in MeOH:4% KCl (3:2) or MeOH:0.2 M KOH (3:2) and then sprayed successively with 0.1 M sodium borate (pH 9.5) and fluorescamine (0.4 mg/ml in acetonitrile). Plates were air-dried and viewed under long wave UV.
The esterase isolated from E. spinifera was then subjected to other treatments, including proteases, to determine whether and how the enzyme would function in various environments.

[1] = Hydrolysis of fumonisin B1 by commercial esterases and hydrolases; format: biochemical; parameters: key: − = no hydrolysis; ± = trace amount of hydrolysis; + = incomplete hydrolysis; ++ = incomplete hydrolysis; +++ = complete hydrolysis; details: assay pH 5.2; overnight at 37° C. with 1 mg/ml fumonisin
Method: as §1, §2
The fumonisin esterase isolated from E. spinifera and R. atrovirens was compared with other known esterases from various sources as supplied by commercial vendors.

| Molecule | FB1 Hydrolase activity (FB1 Hydrolase activity) | FB1 hydrolysis [1] |
| --- | --- | --- |
| Protease K: protease used to treat the culture filtrate (protein, UniProt P06873 106-384, looked up) Proteinase K: AAQTNAPWGLARISSTSPGTSTYYYDESAGQGSCVYVIDTGIEASHPEFEGRAQMVKTYYYSSRDGNGHGTHCAGTVGSRTYGVAKKTQLFGVKVLDDNGSGQYSTIIAGMDFVASDKNNRNCPKGVVASLSLGGGYSSSVNSAAARLQSSGVMVAVAAGNNNADARNYSPASEPSVCTVGASDRYDRRSSFSNYGSVLDIFGPGTSILSTWIGGSTRSISGTSMATPHVAGLAAYLMTLGKTTAASACRYIADTANKGDLSNIPFGTVNLLAYNNYQA | + |  |
| Fumonisin esterase (protein) APTVKIDAGMVVGTTTTVPGTTATVSEFLGVPFAASPTRFAPPTRPVPWSTPLQATAYGPACPQQFNYPEELREITMAWFNTPPPSAGESEDCLNLNIYVPGTENTNKAVMVWIYGGALEYGWNSFHLYDGASFAANQDVIVVTINYRTNILGFPAAPQLPITQRNLGFLDQRFALDWVQRNIAAFGGDPRKVTIFGQSAGGRSVDVLLTSMPHNPPFRAAIMESGVANYNFPKGDLSEPWNTTVQALNCTTSIDILSCMRRVDLATLMNTIEQLGLGFEYTLDNVTVVYRSETARTTGDIARVPVLVGTVANDGLLFVLGENDTQAYLEEAIPNQPDLYQTLLGAYPIGSPGIGSPQDQIAAIETEVRFQCPSAIVAQDSRNRGIPSWRYYYNATFENLELFPGSEVYHSSEVGMVFGTYPVASATALEAQTSKYMQGAWAAFAKNPMNGPGWKQVPNVAALGSPGKAIQVDVSPATIDQRCALYTHYYTELGTIAPRTF |  | +++ |
